# Assay results: paper PMC2647743 (Bioconjugate chemistry, 2008)
# *: point of attachment. DOTA = O=C(O)CN1CCN(CC(=O)O)CCN(CC(=O)*)CCN(CC(=O)O)CC1; Aoc = NCCCCCCCC(=O)O
# Target: BB2 receptor (gastrin-releasing peptide receptor) (human (endogenous in PC-3), UniProt P30550 1-384)
# Assay: radioligand binding
# Chain of BB2 receptor (gastrin-releasing peptide receptor) (P30550 whole entry): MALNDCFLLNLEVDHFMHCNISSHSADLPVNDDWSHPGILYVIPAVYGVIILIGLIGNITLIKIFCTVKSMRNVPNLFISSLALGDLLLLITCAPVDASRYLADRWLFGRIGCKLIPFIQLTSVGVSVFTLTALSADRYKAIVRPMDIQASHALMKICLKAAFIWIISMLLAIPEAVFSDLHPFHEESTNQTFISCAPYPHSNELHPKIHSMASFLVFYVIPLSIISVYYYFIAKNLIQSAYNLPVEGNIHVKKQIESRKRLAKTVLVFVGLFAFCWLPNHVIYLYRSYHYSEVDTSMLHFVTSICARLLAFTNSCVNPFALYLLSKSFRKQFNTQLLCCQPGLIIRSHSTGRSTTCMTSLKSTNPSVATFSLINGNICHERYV
row,Binder,IC50 [µM]
1,{DOTA-Aoc}-HMGWLAQV-NH2 (SMILES CSCC[C@H](NC(=O)[C@H](Cc1c[nH]cn1)NC(=O)CCCCCCCNC(=O)CN1CCN(CC(=O)O)CCN(CC(=O)O)CCN(CC(=O)O)CC1)C(=O)NCC(=O)N[C@@H](Cc1c[nH]c2ccccc12)C(=O)N[C@@H](CC(C)C)C(=O)N[C@@H](C)C(=O)N[C@@H](CCC(N)=O)C(=O)N[C@H](C(N)=O)C(C)C) [DOTA-8-AOC-NONSENSE],> 10
2,{DOTA-Aoc}-HMGWLAQV-NH2 (also: In complex of DOTA) [In-DOTA-8-AOC-NONSENSE],> 10
